Test results published in the supplement of paper PMC6755084.

B1: minF1; the commonest letter at each place (parent)
chain: GAGACCGCAACTGAAAAGTTGTTATCAGAAATGGATGGGTTGAATTTCTGCACGTAGAAGCAAAAGGC
B2: minF1; a variant is named by its letters at N, in order (parent)
chain: GAGACCGCAACTGAAAAGTTGTTATCAGAAATGNNNGGNTNNNTTTCTGCACGTAGAAGCAAAAGGC

Variants of: B1
Experiment: fraction ligated after 30 min (ligated reads / total reads); higher = more ligase activity
Conditions: with F1*subA RNA substrate (template-directed ligation), 42 °C
How it was run: (§1)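 Using barcoded primers for reverse transcription and a MiSeq for sequencing, gel-separated ligated and unligated RNAs of minimized ligase ribozyme variants were read, with core-base filtering at quality ≥30. Fraction ligated per variant was defined as ligated reads over total reads.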

First: GAGACCGCAACTGAAAAGTTGTTATCAGAAATGGATGGGTTGAATTTCTGCACGTAGAAGCAAAAGGC
Second: GAGACCGCAACTGAAAAGTTGTTATCAGAAATGGATGGGTTGATTTTCTGCACGTAGAAGCAAAAGGC
The fraction ligated of the first is lower: 0.761 for the first, 0.794 for the second.

Going from GAGACCGCAACTGAAAAGTTGTTATCAGAAATGGATGGGTTGAGTTTCTGCACGTAGAAGCAAAAGGC to GAGACCGCAACTGAAAAGTTGTTATCAGAAATGGATGGGTTGACTTTCTGCACGTAGAAGCAAAAGGC, the fraction ligated falls from 0.79 to 0.646.

First: GAGACCGCAACTGAAAAGTTGTTATCAGAAATGGATGGGTTGGCTTTCTGCACGTAGAAGCAAAAGGC
Second: GAGACCGCAACTGAAAAGTTGTTATCAGAAATGGATGGGTTGGTTTTCTGCACGTAGAAGCAAAAGGC
The fraction ligated of the first is lower: 0.00393 for the first, 0.00618 for the second.

Compared with GAGACCGCAACTGAAAAGTTGTTATCAGAAATGGATGGGTTGGGTTTCTGCACGTAGAAGCAAAAGGC, GAGACCGCAACTGAAAAGTTGTTATCAGAAATGGATGGGTTGCTTTTCTGCACGTAGAAGCAAAAGGC is higher in fraction ligated: 0.00367 for the first, 0.00456 for the second.

Compared with GAGACCGCAACTGAAAAGTTGTTATCAGAAATGGATGGGTTGGATTTCTGCACGTAGAAGCAAAAGGC, GAGACCGCAACTGAAAAGTTGTTATCAGAAATGGATGGGTTGTATTTCTGCACGTAGAAGCAAAAGGC is higher in fraction ligated: 0.0856 for the first, 0.13 for the second.

Going from GAGACCGCAACTGAAAAGTTGTTATCAGAAATGGATGGGTTGTGTTTCTGCACGTAGAAGCAAAAGGC to GAGACCGCAACTGAAAAGTTGTTATCAGAAATGGATGGGTTGTCTTTCTGCACGTAGAAGCAAAAGGC, the fraction ligated falls from 0.00469 to 0.00191.

Work on GAGACCGCAACTGAAAAGTTGTTATCAGAAATGGATGGGTTGTTTTTCTGCACGTAGAAGCAAAAGGC yielded a fraction ligated of 0.00531.

Variants of: B2
Experiment: as above
Conditions: with F1*subA RNA substrate (template-directed ligation), 42 °C
How it was run: as §1

Compared with GAGACCGCAACTGAAAAGTTGTTATCAGAAATGGATGGGTTATTTTCTGCACGTAGAAGCAAAAGGC, GAGACCGCAACTGAAAAGTTGTTATCAGAAATGGATGGGTTAATTTCTGCACGTAGAAGCAAAAGGC is higher in fraction ligated: 0.00414 for the first, 0.175 for the second.

First: GAGACCGCAACTGAAAAGTTGTTATCAGAAATGGATGGGTTACTTTCTGCACGTAGAAGCAAAAGGC
Second: GAGACCGCAACTGAAAAGTTGTTATCAGAAATGGATGGGTTAGTTTCTGCACGTAGAAGCAAAAGGC
The fraction ligated of the first is lower: 0.00239 for the first, 0.00461 for the second.

Compared with GAGACCGCAACTGAAAAGTTGTTATCAGAAATGGATGGGTTCATTTCTGCACGTAGAAGCAAAAGGC, GAGACCGCAACTGAAAAGTTGTTATCAGAAATGGATGGGTTCTTTTCTGCACGTAGAAGCAAAAGGC is lower in fraction ligated: 0.0146 for the first, 0.00139 for the second.

First: GAGACCGCAACTGAAAAGTTGTTATCAGAAATGGATGGGTTCCTTTCTGCACGTAGAAGCAAAAGGC
Second: GAGACCGCAACTGAAAAGTTGTTATCAGAAATGGATGGGTTCGTTTCTGCACGTAGAAGCAAAAGGC
The fraction ligated of the first is lower: 0.00223 for the first, 0.00256 for the second.

First: GAGACCGCAACTGAAAAGTTGTTATCAGAATGGATGGGTTGAATTTCTGCACGTAGAAGCAAAAGGC
Second: GAGACCGCAACTGAAAAGTTGTATCAGAAATGGATGGGTTGAATTTCTGCACGTAGAAGCAAAAGGC
The fraction ligated of the first is higher: 0.65 for the first, 0.228 for the second.

First: GAGACCGCAACTGAAAAGTTGTTATCAGAAATGGATGGGTTGCTTTCTGCACGTAGAAGCAAAAGGC
Second: GAGACCGCAACTGAAAAGTTGTTATCAGAAATGGATGGGTTGATTTCTGCACGTAGAAGCAAAAGGC
The fraction ligated of the first is lower: 0.00735 for the first, 0.844 for the second.

First: GAGACCGCAACTGAAAAGTTGTTATCAGAAATGGATGGGTTGGTTTCTGCACGTAGAAGCAAAAGGC
Second: GAGACCGCAACTGAAAAGTTGTTATCAGAAATGGATGGGTTGTTTTCTGCACGTAGAAGCAAAAGGC
The fraction ligated of the first is lower: 0.00509 for the first, 0.00586 for the second.

First: GAGACCGCAACTGAAAAGTTGTTATCGAAATGGATGGGTTGAATTTCTGCACGTAGAAGCAAAAGGC
Second: GAGACCGCAACTGAAAAGTTGTTATCAGAAATGGAGGGTTGAATTTCTGCACGTAGAAGCAAAAGGC
The fraction ligated of the first is higher: 0.733 for the first, 0.00382 for the second.

First: GAGACCGCAACTGAAAAGTTGTTATCAGAAATGATGGGTTGAATTTCTGCACGTAGAAGCAAAAGGC
Second: GAGACCGCAACTGAAAAGTTGTTATCAAAATGGATGGGTTGAATTTCTGCACGTAGAAGCAAAAGGC
The fraction ligated of the first is lower: 0.0281 for the first, 0.52 for the second.

Going from GAGACCGCAACTGAAAAGTTGTTTCAGAAATGGATGGGTTGAATTTCTGCACGTAGAAGCAAAAGGC to GAGACCGCAACTGAAAAGTTGTTATAGAAATGGATGGGTTGAATTTCTGCACGTAGAAGCAAAAGGC, the fraction ligated rises from 0.0261 to 0.0728.

Going from GAGACCGCAACTGAAAAGTTGTTATCAGAAATGGATGGTTGAATTTCTGCACGTAGAAGCAAAAGGC to GAGACCGCAACTGAAAAGTTGTTATCAGAAATGGTGGGTTGAATTTCTGCACGTAGAAGCAAAAGGC, the fraction ligated falls from 0.023 to 0.0136.

Going from GAGACCGCAACTGAAAAGTTGTTATCAGAAATGGATGGGTTTATTTCTGCACGTAGAAGCAAAAGGC to GAGACCGCAACTGAAAAGTTGTTATCAGAAATGGATGGGTTTCTTTCTGCACGTAGAAGCAAAAGGC, the fraction ligated falls from 0.0473 to 0.00331.

Going from GAGACCGCAACTGAAAAGTTGTTATCAGAAATGGATGGGTTTTTTTCTGCACGTAGAAGCAAAAGGC to GAGACCGCAACTGAAAAGTTGTTATCAGAAATGGATGGGTTTGTTTCTGCACGTAGAAGCAAAAGGC, the fraction ligated rises from 0.000955 to 0.00218.

For GAGACCGCAACTGAAAAGTTGTTACAGAAATGGATGGGTTGAATTTCTGCACGTAGAAGCAAAAGGC, the fraction ligated was 0.0163.
